Source: the Human Domainome abundance scans (Beltran et al. 2025)
± gives the uncertainty stated by the source.

B1: Protein C-ets-1, residues 55 to 135; numbered along this chain, P14921 (parent)
chain: GFTKEQQRLGIPKDPRQWTETHVRDWVMWAVNEFSLKGVDFQKFCMNGAALCALGKDCFLELAPDFVGDILWEHLEILQKE

Variants of: B1
Assay: abundance fitness (aPCA) (normalised: wild type 0, dead -1); higher = more abundant; growth selection in yeast, the domain comes from the species named
Settings: Homo sapiens

Variant | abundance fitness
N47G | -0.185 ± 0.038
N47H | -0.152 ± 0.081
N47Q | -0.277 ± 0.049
N47V | -0.903 ± 0.081
F34Q | -0.358 ± 0.047
F34S | -0.52 ± 0.033
F34C | -0.428 ± 0.048
F34A | -0.493 ± 0.032
F34K | -0.175 ± 0.046
F34L | -0.276 ± 0.028
F34N | -0.244 ± 0.069
F34P | -0.886 ± 0.06
F34Y | -0.023 ± 0.052
F34R | -0.3 ± 0.029
F34D | -0.623 ± 0.068
F34I | -0.9 ± 0.14
F34H | -0.084 ± 0.059
F34M | -0.362 ± 0.053
F34E | -0.425 ± 0.045
F34W | -0.039 ± 0.042
F34T | -0.743 ± 0.067
V31M | -0.069 ± 0.04
V31R | -0.274 ± 0.027
V31Q | -0.126 ± 0.04

Variant | abundance fitness
V31I | -0.053 ± 0.07
V31A | 0.018 ± 0.037
V31T | 0.006 ± 0.044
V31Y | -0.44 ± 0.066
V31L | -0.326 ± 0.029
V31C | -0.013 ± 0.045
V31F | -0.645 ± 0.067
V31G | -0.427 ± 0.03
V31E | -0.19 ± 0.053
V31N | -0.401 ± 0.067
V31K | -0.18 ± 0.054
V31S | -0.076 ± 0.03
V31D | -0.491 ± 0.055
V31H | -0.495 ± 0.071
N32I | -0.193 ± 0.073
N32Y | -0.327 ± 0.077
N32M | -0.119 ± 0.055
N32H | 0.032 ± 0.072
N32K | 0.028 ± 0.054
N32W | -0.332 ± 0.05
N32D | 0.046 ± 0.051
N32R | 0.019 ± 0.027
N32Q | 0.003 ± 0.041
N32P | -0.49 ± 0.045

Variant | abundance fitness
N32F | -0.399 ± 0.073
N32A | -0.001 ± 0.032
N32G | -0.018 ± 0.023
N32S | -0.008 ± 0.032
N32T | -0.042 ± 0.051
N32V | -0.111 ± 0.031
N32C | -0.132 ± 0.044
N32L | -0.179 ± 0.039
N32E | -0.042 ± 0.043
A30I | -0.196 ± 0.079
A30L | -0.187 ± 0.036
A30G | -0.197 ± 0.033
A30P | -0.8 ± 0.074
A30F | -0.187 ± 0.086
A30N | -0.108 ± 0.092
A30M | -0.008 ± 0.055
A30Q | -0.183 ± 0.051
A30W | -0.195 ± 0.039
A30R | -0.643 ± 0.045
A30K | -0.366 ± 0.07
A30H | -0.107 ± 0.098
A30E | -0.032 ± 0.044
A30C | -0.02 ± 0.059
A30T | 0.003 ± 0.04

Variant | abundance fitness
A30S | -0.062 ± 0.029
A30Y | -0.188 ± 0.13
A30D | -0.671 ± 0.086
C45M | -0.019 ± 0.05
C45F | -0.028 ± 0.081
C45V | -0.05 ± 0.036
C45S | 0.01 ± 0.035
C45P | -0.344 ± 0.038
C45W | -0.041 ± 0.043
C45R | -0.024 ± 0.029
C45H | 0.052 ± 0.08
C45T | -0.007 ± 0.061
C45Q | -0.002 ± 0.059
C45L | -0.087 ± 0.027
C45K | -0.067 ± 0.08
C45Y | -0.032 ± 0.045
C45E | 0.022 ± 0.053
C45A | 0.053 ± 0.033
C45N | 0.116 ± 0.11
F41K | -0.072 ± 0.062
F41W | -0.1 ± 0.046
F41D | -0.053 ± 0.037
F41G | -0.128 ± 0.031
F41R | -0.094 ± 0.03

Variant | abundance fitness
F41Q | -0.134 ± 0.066
F41C | -0.034 ± 0.044
F41P | 0.059 ± 0.045
F41V | 0.044 ± 0.028
F41I | 0.022 ± 0.055
F41T | 0.007 ± 0.047
F41E | -0.031 ± 0.052
F41S | -0.042 ± 0.036
F41Y | 0.055 ± 0.055
F41N | -0.039 ± 0.11
F41M | 0.056 ± 0.067
F41L | 0.051 ± 0.028
F41H | 0.045 ± 0.069
E33G | -0.539 ± 0.03
E33S | -0.117 ± 0.03
E33A | -0.071 ± 0.033
E33L | -0.503 ± 0.038
E33F | -0.134 ± 0.074
E33H | -0.006 ± 0.066
E33Y | -0.099 ± 0.062
E33R | -0.042 ± 0.033
E33K | -0.001 ± 0.05
E33T | -0.063 ± 0.043
E33I | -0.498 ± 0.1

Variant | abundance fitness
E33P | -0.796 ± 0.074
E33N | -0.078 ± 0.076
E33M | -0.316 ± 0.055
E33C | -0.132 ± 0.058
E33W | -0.179 ± 0.038
E33Q | -0.099 ± 0.051
V39W | -0.445 ± 0.051
V39Y | -0.688 ± 0.11
V39M | -0.267 ± 0.065
V39Q | -0.683 ± 0.12
V39G | -0.714 ± 0.046
V39H | -0.537 ± 0.13
V39K | -0.533 ± 0.14
V39R | -0.749 ± 0.049
V39F | -0.239 ± 0.096
V39L | -0.141 ± 0.042
V39S | -0.624 ± 0.052
V39C | -0.194 ± 0.06
V39T | -0.387 ± 0.061
V39A | -0.511 ± 0.043
V39D | -0.699 ± 0.097
V39I | -0.061 ± 0.06
V39N | -0.755 ± 0.22
K37V | -0.017 ± 0.026

Variant | abundance fitness
K37D | -0.022 ± 0.052
K37Q | 0.005 ± 0.042
K37I | -0.064 ± 0.081
K37C | -0.128 ± 0.049
K37T | -0.027 ± 0.047
K37H | -0.048 ± 0.068
K37N | -0.033 ± 0.057
K37E | 0.044 ± 0.047
K37S | -0.033 ± 0.032
K37R | -0.076 ± 0.027
K37M | -0.146 ± 0.044
K37A | -0.046 ± 0.033
K37W | -0.213 ± 0.037
K37G | -0.054 ± 0.03
K37Y | -0.255 ± 0.059
K37P | -0.043 ± 0.041
K37L | -0.161 ± 0.029
K37F | -0.199 ± 0.06
G48H | -0.94 ± 0.47
G48I | -1.03 ± 0.29
G48E | -0.806 ± 0.17
G48C | -0.884 ± 0.13
G48A | -0.972 ± 0.093
